Blank lines part the entries; values can stand above or below the binder they belong to.
What was measured:
[1] = target: T1, Prostate specific membrane antigen (PSMA) expressed on cell surface (human, UniProt Q04609 1-750); assay: cell-based or functional assay
[2] = target: T1, Prostate specific membrane antigen …; assay: cell ELISA on fixed C4-2 cells, 100 nM to 0.19 pM, HRP anti-human IgG Fc
[3] = target: T1, Prostate specific membrane antigen …; assay: cell ELISA on fixed C4-2 cells; 3-fold dilutions from 100 nM to 0.19 pM; detection with HRP anti-human IgG Fc, TMB
[4] = target: T2, PSMA (form not stated; as named in the summary sentence of paragraph 43) (UniProt Q04609 44-750, limits assumed); assay: not stated (summary sentence in the description)
T2 construct: The summary sentence gives neither the assay nor the form of PSMA, so the value could not be assigned to m8, m9 or m10; also called prostate specific membrane antigen

[5] = target: T3, biotinylated recombinant extracellular domain of human PSMA (human, UniProt Q04609 44-750, biotinylated with EZ-Link Sulfo-NHS-Biotin (protein:biotin 1:20); residues not stated); assay: capture ELISA: scFv (100 nM to 0.137 nM) captured on anti-Flag, 0.5 µg/ml biotinylated PSMA, streptavidin-HRP; GraphPad Prism
T3 construct: Bought from R&D systems; also called biotinylated PSMA; biotinylated PSMA protein
Method: (§1) Briefly, anti-Flag antibody (Sigma) was coated on ELISA plate at 4° C. overnight in PBS. […] Plate was then washed and incubated with biotinylated PSMA and the binding was detected with streptavidin-HRP, and analyzed by colorimetric development using TMB and then stop buffer. Absorbance at OD450 was measured and the affinity was calculated using GraphPad Prism software.
(§2) There is a Flag tag and a V5 tag at the N and C terminus of scFv, and thus antibodies to these tags were used to capture the scFv for ELISA assay. Briefly, anti-Flag antibody (Sigma) was coated on ELISA plate at 1 μg/ml, 50 μl/well at 4° C. overnight in PBS. […] Plate was washed 6 times with PBST and then incubated with 0.5 μg/ml biotinylated PSMA in PBS™ for 1 more hour at RT. After 6 washes, plate was incubated with 1:1000 diluted streptavidin-HRP (BD Bioscience) in PBS™ at RT for 30 min. Plate was washed again for 6 times and incubated with TMB for 20 min at RT, colorimertric reaction was stopped with stop buffer and the absorbance was read at OD450.

[6] = target: T3, biotinylated recombinant extracellular …; assay: capture ELISA: anti-Flag coated, gy1 scFv in 3-fold dilutions, 0.5 ug/ml biotinylated PSMA, streptavidin-HRP, TMB
Method: as §1, §2

[7] = target: T1, Prostate specific membrane antigen …; assay: cell ELISA on fixed C4-2 cells, 8100 nM to 0.005 nM, HRP anti-6His; one-site binding hyperbola
Method: (§3) Briefly, C4-2 cultured in 96-well plate were fixed with 4% paraformaldehyde, blocked with 3% H₂O₂ and 6% bovine serum albumin sequentially. […] Cell binding was detected with HRP-conjugated mouse anti-6His and colorimetric signals were developed by TMB and stopped by STOP buffer.
(§4) The next day, cells were fixed with 4% paraformaldehyde for 20 min before being treated with 3% H₂O₂ for 20 minutes to block endogenous peroxidase followed by blocking with 6% bovine serum albumin for 30 min at room temperature. […] Cells were then washed with PBST and incubated with HRP-conjugated mouse anti-6His antibody (AbD Serotec, Bio-Rad, Oxford, UK) for 1h at room temperature. Colorimetric signals were developed by addition of 3, 3′, 5, 5′-tetramethylbenzidine (TMB, eBioscience, CA, USA) and stopped by incubation with 1 M […] for 15 minutes. The absorbance was measured at 450 nm using a Sunrise microplate reader (Tecan, Groedig, Austria) and the binding curves were analyzed using GraphPad Prism 5.0 software.

[8] = target: T1, Prostate specific membrane antigen …; assay: cell ELISA on fixed C4-2 cells; 3-fold dilutions, 1 h, 37 °C; detection with HRP mouse anti-6His, TMB
Method: as §3, §4

T1 sequence (Q04609 whole entry): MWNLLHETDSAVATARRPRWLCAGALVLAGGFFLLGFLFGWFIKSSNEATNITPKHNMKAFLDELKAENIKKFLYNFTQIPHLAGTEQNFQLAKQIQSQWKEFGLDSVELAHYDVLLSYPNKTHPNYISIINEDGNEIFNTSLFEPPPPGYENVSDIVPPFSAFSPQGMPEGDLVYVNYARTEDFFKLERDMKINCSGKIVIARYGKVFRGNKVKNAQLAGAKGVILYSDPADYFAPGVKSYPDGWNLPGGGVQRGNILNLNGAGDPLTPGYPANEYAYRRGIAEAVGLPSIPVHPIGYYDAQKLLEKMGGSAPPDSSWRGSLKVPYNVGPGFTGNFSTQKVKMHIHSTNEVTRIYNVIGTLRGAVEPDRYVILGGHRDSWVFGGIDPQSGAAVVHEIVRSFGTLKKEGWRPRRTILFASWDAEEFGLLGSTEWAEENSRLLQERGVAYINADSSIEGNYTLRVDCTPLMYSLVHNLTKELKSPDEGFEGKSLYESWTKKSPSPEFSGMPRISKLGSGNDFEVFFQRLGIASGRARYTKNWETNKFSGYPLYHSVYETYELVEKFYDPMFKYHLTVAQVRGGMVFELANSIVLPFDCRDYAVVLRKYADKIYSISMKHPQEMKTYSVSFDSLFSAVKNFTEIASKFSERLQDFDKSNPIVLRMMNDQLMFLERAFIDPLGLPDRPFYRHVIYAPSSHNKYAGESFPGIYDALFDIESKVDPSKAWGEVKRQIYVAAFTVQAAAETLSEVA
T3 sequence (Q04609 44-750): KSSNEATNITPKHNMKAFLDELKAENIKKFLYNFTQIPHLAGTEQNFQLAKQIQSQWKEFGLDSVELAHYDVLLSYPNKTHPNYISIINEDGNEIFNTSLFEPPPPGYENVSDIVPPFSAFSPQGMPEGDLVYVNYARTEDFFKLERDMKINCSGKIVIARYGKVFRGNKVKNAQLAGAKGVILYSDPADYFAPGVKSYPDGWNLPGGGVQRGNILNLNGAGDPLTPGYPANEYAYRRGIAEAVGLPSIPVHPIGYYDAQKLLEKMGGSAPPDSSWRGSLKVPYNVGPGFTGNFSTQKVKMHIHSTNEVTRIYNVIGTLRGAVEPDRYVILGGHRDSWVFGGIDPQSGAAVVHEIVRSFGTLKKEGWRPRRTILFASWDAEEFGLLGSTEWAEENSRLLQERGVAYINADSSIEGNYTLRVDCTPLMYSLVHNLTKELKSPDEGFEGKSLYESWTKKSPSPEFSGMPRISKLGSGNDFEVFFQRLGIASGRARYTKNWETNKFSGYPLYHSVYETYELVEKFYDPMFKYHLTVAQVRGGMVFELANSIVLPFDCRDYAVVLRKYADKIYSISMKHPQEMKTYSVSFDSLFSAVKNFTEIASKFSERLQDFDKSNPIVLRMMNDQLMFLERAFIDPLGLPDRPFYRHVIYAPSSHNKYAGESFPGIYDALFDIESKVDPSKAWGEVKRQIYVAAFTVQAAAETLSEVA
T2 sequence (Q04609 44-750 limits assumed): as the sequence (Q04609 44-750) above

B1: PSMAb-DM1 (antibody, human IgG1, lambda, V domains shown)
VH: EVQLVESGGALAKPGGSLRLSCAASGFTLSGYAMHWVRQAPGKGLEWVAVISYDGSNKYYADSVKGRFTVSRDNSKNTLFLQMNSLRPEDTAVYYCAKGLTWGLGDNDALDIWGPGTTVTVSS
VL: QSVLTQPPSVSGAPGQSVIISCTGSSSNIGAGSHVHWYQQVPGTAPKLLIYENTNRPSGVPDRFSGSKSGTSGSLAITGLQPEDEADYYCATWDDSLNGVIFGGGTKATVLG
modifications: DM1 through SMCC linker, drug/Ab conjugation ratio 3.3 per antibody; conjugated residues and chain not stated
notes: also called PSMAb-ADC; PSMAb conjugate with DM1
IC50 of cytotoxicity on C4-2 cells (alamarBlue, 4 days) [1]: 0.12 nM

B2: PSMAb-MMAE (antibody, human IgG1, lambda, V domains shown)
VH: B1 VH
VL: B1 VL
modifications: MC-vc-PAB-MMAE after partial reduction with TCEP, drug loading 3.5 per antibody; conjugated residues and chain not stated
notes: also called PSMAb-ADC; PSMAb conjugate with MMAE
IC50 of cytotoxicity on C4-2 cells (alamarBlue, 4 days) [1]: 0.59 nM

B3: PSMAb-MMAF (antibody, human IgG1, lambda, V domains shown)
VH: B1 VH
VL: B1 VL
modifications: MC-vc-PAB-MMAF after partial reduction with TCEP, drug loading 3.03 per antibody; conjugated residues and chain not stated
notes: also called PSMAb-ADC; PSMAb conjugate with MMAF
IC50 of cytotoxicity on C4-2 cells (alamarBlue, 4 days) [1]: 0.92 nM

B6: E. coli expressed gy1 scFv (pET302-gy1, BL21) (scFv)
scFv: QSVLTQPPSVSGAPGQSVIISCTGSSSNIGAGSHVHWYQQVPGTAPKLLIYGNTNRPSGVPDRFSGSKSGTSGSLAITGLQPEDEADYYCATWDDSLNGVIFGGGTKVTVLGGSSRSSSSGGGGSGGGGEVQLVESGGALAKPGGSLRLSCAASGSTLSGYAMHWVRQAPGKGLEWVAVISYDGSNKYYADSVKGRFTISRDNSKNTLFLQMNSLRPEDTAVYYCAKGLTWGLGDNDALDIWGPGTTVTVSS
notes: also called E. coli expressed scFv gy1; not shown: His tag (purified on HisTrp HP column, detected with anti-6His)
Kd [7]: 4.13 nM | EC50 (read off the curve) [8]: ~300 nM

More lines, now with the values ahead:

Kd [2]: 0.1 nM | EC50 (read off the curve) [3]: ~0.1 nmol/L
B4: PSMAb (full IgG1 antibody engineered from gy1-2 scFv) (antibody, V domains shown)
VH: B1 VH
VL: B1 VL
notes: IgG1 heavy constant region and lambda light constant region; expressed in CHO-S cells; also called PSMAb full antibody

Kd [4]: 0.9 nM | Kd [5]: 1.17 nM | EC50 (read off the curve) [6]: ~1 nM
B5: gy1 scFv (secreted by yeast strain YVH10) (scFv)
scFv: B6 scFv
notes: also called scFv gy1; anti-PSMA scFv gy1; not shown: Flag tag at the N terminus; V5 tag at the C terminus; 6xHis tag at the C terminus

From patent publication US20210277141A1 (ORIMABS, published 2021)
